From the supplement of paper PMC9170038

System: MS2 coat protein
Assay: apparent KD of MS2 coat protein; higher = weaker reporter binding
Details: Eterna round: R107
Summary of the method: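 SNAP-549-labelled MS2 coat protein was titrated onto designed RNA switches that had been transcribed on-chip from Illumina sequencing clusters. Amounts doubled from 0.7 or 1.5 nM to 3 µM in 100 mM Tris-HCl pH 7.5, 80 mM KCl, 4 mM MgCl2, with constant ligand or without. Apparent KD is the median per design of normalised cluster binding-curve fits.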

[1] = input ligand: theophylline 20 uM
[2] = input ligand: theophylline 2 mM
[3] = input ligand: tryptophan 2.4 mM

| Sequence | apparent KD of MS2 coat protein (input ligand: arginine 13.2 mM) [nM] | apparent KD of MS2 coat protein (input ligand: none) [nM] | apparent KD of MS2 coat protein [1] [nM] | apparent KD of MS2 coat protein [2] [nM] | apparent KD of MS2 coat protein [3] [nM] |
| --- | --- | --- | --- | --- | --- |
| GAGUAGAGGACGGCCGCCACUGAACAUGAGGAUCACCCAUGUCGUGAUCCGUUGCCUGAAGAAGAUAGGACCGGGUCAUGUGCUC [Exclusion Tryptophan B GF 20] | 40.4 | 28.6 | 44.7 | 31.8 | 25.5 |
| AUACAUGAGGAUCACCCAUGUGAUGGCCGGCGAGGACCGGUACGGCCGCCACUCGUGAUCCGUCCUGAGAGCAAAGCUCUCAGCA [Macete] | 76 | 141 | 258 | 292 | 337 |
| CCUCAAUAGACGGCCGCCACUGAAUCAUGCGGAUACAUGAGGAUCACCCAUGUGGGUGUGGUACGCAGGACCGGGUCAAGACCCG [#13 Same State - Tryptophan B] | 278 | 145 | 454 | 1860 | 149 |
| AGUAACAUGAGGAUCACCCAUGUAUGAGAAGGAGCGUGUUUUAACACAGGUAGGUCGCUCAAUAUUAAUUUAUUAGAUACAUUUA [JR_SSArginiA_Sub006] | 18.9 | 27 | 45.1 | 36.8 | 34.3 |
| UUCGUUUACGGAAGGAGCGACGGACAUCGGUGAACGACGCACAUGAGGAUCACCCAUGUACGUCAGGUAGGUCGCCGUUAAGAGU [Somama] | 23 | 17.4 | 27.7 | 19.6 | 19.2 |
| UAUCCACAUGAGGAUCACCCAUGUAGGGAAGGAGCGGUGGUUGCACCAGGUAGGUCGCCUUGCUGAGGAUAACCGGUGGAAUCGU [Exclusion - Arginine A (Freestyle 28)] | 32.8 | 18.8 | 26.9 | 33.6 | 31.1 |
| AUAACUGCCAAGGAUCAUGGGUGAGCAGAUACCAGCUAGGAAACUAGCCCUUGGCAGCUGCAACAUGAGGAUCACCCAUGUAAUA [(T)'-(M)'-(T1)-(T2)-(M1)-(M2)_Design8] | 38.5 | 147 | 83.8 | 119 | 90.4 |
| GAGCUCGUGGACUGGCGUGCUCCGCUCCGUCGAGGACCGGUACGGCCGCCACUCGACAUGAGGAUCACCCAUGUGUGAGCUCGCU [#1 Exclusion - Tryptophan A Attempt #21 (HarryS)] | 61.1 | – | 185 | 390 | – |
| GGACUAACCAGAAGGAGCGACACGCAGAAACUGCAAUUUCCUCUACACGAGGAUCACCCGUGUCAGGUAGGUCGCUGGUUAGUCG | 50 | 53.1 | 74.8 | 65 | 54 |
| GGAUCCAUCCGAAGGAGCGUCGGAAAUGGGUAAACAUGAGGAUCACCCAUGUAAAGGGAACGGCAGGUAGGUCGCGGAUGGAUCC [#25 Same State - Arginine B] | 132 | 99.1 | 167 | 157 | 195 |
| GGAUAGGACACGGCCGCCACUACCUAGGAUACUAGCAACAUUUGGGUACAAGAGGAUCACCCUUGUAGGACCGGGUGUCCUAUCG | 23.1 | 22.1 | 28 | 25.5 | 59 |
| UCACGACGCAACGUGAAAUAAUAAACAGAAGGAGCGAGGAAAGCCUCAGGUAGGUCGCUGACAUGAGGAUCACCCAUGUAUUACA [Same State Arginine A GF5] | 27.1 | 31.5 | 41.2 | 35.1 | 32.2 |
| CACAUGAGGAUCACCCAUGUCUGAACUGAAGGAGCGCUAAAUAAGGCAGGUAGGUCGCGGAAUUUUGUGUGCAUAUGCACAUGGG [9.P] | 17.2 | 27.9 | 30.7 | 26.9 | 23.9 |
| AUACAUGAGGAUCACCCAUGUCAUUCAGAAGGAGCGUCAUUUUAGACAGGUAGGUCGCUGAUAUUAUUCUUAUACUUUAUGUUUA [JR_ExcArginiA_Sub022] | 21 | 17.7 | 26 | 19.5 | 20.2 |
| GGUUACUCUACGGCCGCCACUGAAAAGUAAAUAUUAAUGUACAUGACAUGAGGAUCACCCAUGUACAGGACCGGGUAGUGUAACC [Tryptophan B 13] | 64.8 | – | 102 | 108 | – |
| UGUAUGGACUGAAGGAGCGGAAGAUAACCUGAGGAUCACCCGGGUAAUAAGGCGAAAGCCUUCCAGGUAGGUCGCAGUCCAUACU | 230 | 293 | 334 | 419 | 250 |
| AGACAUGAGGAUCACCCAUGUAGUACGGAUACCAGAUCCAGAUGUAUCCCUUGGCAGCUGUGGUACAGCGUUACAUCGCUCGUAG [Exclusion - Theophylline A (Freestyle 21)] | 10.4 | 13.3 | 18.4 | 16.6 | 16.2 |
| UGUCGGCGUAAGUUGGCAUGUCUUGCUGGUCGAGGACCGGUACGGCCGCCACUCGAUCCUUCGCACAUGAGGAUCACCCAUGUUG [SS Tryp A #25] | 20.3 | – | 29.3 | 20.4 | – |
